Values quoted from earlier work, collected in patent publication US5780279A, “Method of selection of proteolytic cleavage sites by directed evolution and phagemid display” (Genentech, Inc., priority 1995, dated 1998).
Where no end group is shown, it is not given here.

Target: A64SAL subtilisin (Bacillus amyloliquefaciens, UniProt P00782, E263S/G276A/H171A/S131C/Y324L)
Settings: Carter et al (1989)

A64SAL subtilisin, sequence (P00782 108-382 S131C/H171A/E263S/G276A/Y324L): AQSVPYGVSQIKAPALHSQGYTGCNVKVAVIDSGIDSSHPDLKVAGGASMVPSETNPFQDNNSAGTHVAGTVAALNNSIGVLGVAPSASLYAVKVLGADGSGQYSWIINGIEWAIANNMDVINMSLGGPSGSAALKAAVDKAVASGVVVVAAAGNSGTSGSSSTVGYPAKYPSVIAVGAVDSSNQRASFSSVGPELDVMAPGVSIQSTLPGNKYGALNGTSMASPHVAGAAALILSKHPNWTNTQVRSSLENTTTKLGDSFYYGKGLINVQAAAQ

For AAHYTRQ, the “substrate quality for A64SAL subtilisin” value is listed as “good substrate”.
